Test [1] addresses prenylated A647-Cdc42 (human) (UniProt P60953).
Test [2] concerns the target biotin-Cy3-Cdc42 (geranylgeranylated) (human) (UniProt P60953). In words: single-molecule dual-color TIRF microscopy, co-recruitment; 100 pM biotin-Cy3-Cdc42:A647-RhoGDI1 complex, imaged <2 min after dilution, captured on neutravidin-coated biotin-PEG coverslips; 50 mM HEPES pH 7.5, 50 mM NaCl, 2 mM MgCl2; 22 ms per frame; 23 °C.
In test [3] the target is RhoGDI1 (Homo sapiens) (UniProt P52565). The conditions noted are these: cited from earlier work.
Test [4] concerns the target prenylated A647-Cdc42 (human) (UniProt P60953). This is another data set of the same source.
In test [5] the target is geranylgeranylated Cy3-Cdc42 (human) (UniProt P60953).
Test [6] deals with prenylated A647-Cdc42 (human) (UniProt P60953). This is another data set of the same source.

Sequence of UniProt P52565 (P52565 2-204): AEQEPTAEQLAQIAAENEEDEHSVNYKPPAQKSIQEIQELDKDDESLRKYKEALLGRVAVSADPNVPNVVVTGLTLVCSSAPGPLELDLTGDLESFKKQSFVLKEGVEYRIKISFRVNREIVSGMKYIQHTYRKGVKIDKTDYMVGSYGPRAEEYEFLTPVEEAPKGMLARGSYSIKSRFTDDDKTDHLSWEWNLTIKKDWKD
Sequence of Cdc42 (P60953 1-188): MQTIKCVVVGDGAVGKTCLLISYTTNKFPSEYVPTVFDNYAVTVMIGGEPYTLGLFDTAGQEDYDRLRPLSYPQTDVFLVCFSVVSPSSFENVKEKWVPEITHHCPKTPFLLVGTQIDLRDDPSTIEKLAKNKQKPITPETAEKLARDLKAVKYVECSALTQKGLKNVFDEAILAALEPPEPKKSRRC

“A488-2xwCRIB (from UniProt P42768 201-268; P42768 201-268) (domain or fragment)” registered a dwell time of A647-Cdc42 on the membrane inside the GEF-containing region in microfluidic flow-out, with 2xwCRIB in test [1] of 1.4 fold.
In the case of “A647-RhoGDI1 (from UniProt P19803 1-204) (natural protein)”, the fraction of Cdc42 molecules co-recruited with RhoGDI1 in test [2] was determined as 63%.
The term Kd denotes the free concentration of one partner at which half of the binding sites on the other are occupied at equilibrium, for simple one-to-one binding. Turning to Cdc42 (from UniProt P60953), in test [3], the Kd is 0.09 nM.
Regarding “RhoGDI1 (unlabeled) (from UniProt P19803 1-204) (natural protein)”, the concentration of Cdc42:RhoGDI1 complexes against free Cdc42 needed to reach similar levels of membrane-bound GTPase on SLBs (600 nM vs 5.5 nM) in test [4] is 100 fold. Also, the maximal rate of nucleotide exchange (Cy5-GDP to unlabeled GDP) from Cy5-GDP:Cy3-Cdc42:RhoGDI1 complexes (100 nM) with ITSNcat-His10 pre-bound to PM LUVs, GEF concentration varied in test [5] is 0.0002 s⁻¹.
With “full-length Atto488-N-WASP (from UniProt O00401 1-505) (natural protein)”, the patterning index of A647-Cdc42 (inside against outside of GEF-containing areas) after GEF addition in the presence of Atto488-N-WASP in test [6] was found to be 1.35.

These data come from article PMC12048676.
